According to PMC2425480 (Nucleic Acids Research, 2008):

Biological target: the molecule itself
Assay: crystal structure

B1: Sulfolobus solfataricus MCM protein N-terminal domain (residues 1–268) (domain or fragment, UniProt Q9UXG1 1-268, looked up)
chain: MEIPSKQIDYRDVFIEFLTTFKGNNNQNKYIERINELVAYRKKSLIIEFSDVLSFNENLAYEIINNTKIILPILEGALYDHILQLDPTYQRDIEKVHVRIVGIPRVIELRKIRSTDIGKLITIDGILVKVTPVKERIYKATYKHIHPDCMQEFEWPEDEEMPEVLEMPTICPKCGKPGQFRLIPEKTKLIDWQKAVIQERPEEVPSGQLPRQLEIILEDDLVDSARPGDRVKVTGILDIKQDSPVKRGSRAVFDIYMKVSSIEVSQKV
  stoichiometry N: 6
